Legend:
[1] = target: T1, SPRED1(EVH1), SPRED1(13–125), wild type (ITC) (human, UniProt Q7Z699 13-125); assay: ITC
T1 chain: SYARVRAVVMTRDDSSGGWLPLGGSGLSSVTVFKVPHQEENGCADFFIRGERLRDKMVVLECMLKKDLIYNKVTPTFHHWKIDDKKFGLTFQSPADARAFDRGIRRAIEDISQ

[2] = target: KRAS4b(1–169), wild type, GMPPNP-bound (UniProt P01116-2 1-169); assay: ITC; GMPPNP

B1: NF1 isoform I (GRD containing additional 23 residues) (domain or fragment)
chain: DRFERLVELVTMMGDQGELPIAMALANVVPCSQWDELARVLVTLFDSRHLLYQLLWNMFSKEVELADSMQTLFRGNSLASKIMTFCFKVYGATYLQKLLDPLLRIVITSSDWQHVSFEVDPTRLEPSESLEENQRNLLQMTEKFFHAIISSSSEFPPQLRSVCHCLYQATCHSLLNKATVKEKKENKKSVVSQRFPQNSIGAVGSAMFLRFINPAIVSPYEAGILDKKPPPRIERGLKLMSKILQSIANHVLFTKEEHMRPFNDFVKSNFDAARRFFLDIASDCPTSDAVNHSLSFISDGNVLALHRLLWNNQEKIGQYLSSNRDHKAVGRRPFDKMATLLAYLGPPEH
- Kd [1]: 260 nM
- Kd [2]: 4000 nM
